± gives the standard deviation of the averaged measurements.
Key:
[1] = purified protein yield per well (BCA); higher = higher soluble expression
Outline: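 On an OT-2 robot, lysed cells were processed by binding protein to Ni-charged magnetic beads and releasing it with SUMO protease. Expression took place in E. coli C41(DE3), in 2 mL autoinduction cultures with 100 µg/mL kanamycin, for 2 h at 37 °C followed by 40 h at 18 °C. The Pierce Rapid Gold BCA kit was used to quantify purified protein yield in each well, with values under 25 ug (0.1 mg/mL) below the detection threshold.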

[2] = PET hydrolysis, aromatic products released after 48 h (umol product/mg enzyme); higher = more PET depolymerization activity
Outline: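 Hydrolysis activity toward PET is reported as supernatant aromatic product per mg enzyme. To measure it, 5 μg (50 μL) of tagless enzyme was incubated with 3.5 mg amorphous PET film or crystalline PET powder in 450 μL buffer for 48 h at 40 or 60 °C in sealed, unshaken plates. The product was quantified by absorbance at 260 and 280 nm relative to buffer blanks.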

[3] = melting temperature (DSF); higher = more thermostable
Outline: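 After expression in E. coli C41(DE3), the candidate enzymes were bound to nickel beads and released with SUMO protease. Their melting temperature was found by differential scanning fluorimetry with Sypro Orange on a Bio-Rad CFX96. Each sealed PCR plate well held 45 μL enzyme (0 to 0.3 mg/mL) plus 5 μL 5X dye, and fluorescence was read for 250 cycles from 25 °C at 0.3 °C per cycle (ramp 0.3 °C/s).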

[4] = substrate: cryPow, 40 °C, pH 4.5
[5] = substrate: cryPow, 40 °C, pH 5.5
[6] = substrate: cryPow, 40 °C, pH 6.5
[7] = substrate: cryPow, 40 °C, pH 7.5
[8] = substrate: cryPow, 60 °C, pH 4.5
[9] = substrate: cryPow, 60 °C, pH 5.5
[10] = substrate: cryPow, 60 °C, pH 6.5
[11] = substrate: cryPow, 60 °C, pH 7.5
[12] = substrate: aFilm, 40 °C, pH 4.5
[13] = substrate: aFilm, 40 °C, pH 5.5
[14] = substrate: aFilm, 40 °C, pH 6.5
[15] = substrate: aFilm, 40 °C, pH 7.5
[16] = substrate: aFilm, 60 °C, pH 4.5
[17] = substrate: aFilm, 60 °C, pH 5.5
[18] = substrate: aFilm, 60 °C, pH 6.5
[19] = substrate: aFilm, 60 °C, pH 7.5

| Sequence | purified protein yield per well [1] [µg] | PET hydrolysis [2, 4] | PET hydrolysis [2, 5] | PET hydrolysis [2, 6] | PET hydrolysis [2, 7] | PET hydrolysis [2, 8] | PET hydrolysis [2, 9] | PET hydrolysis [2, 10] | PET hydrolysis [2, 11] | melting temperature [3] [C] | PET hydrolysis [2, 12] | PET hydrolysis [2, 13] | PET hydrolysis [2, 14] | PET hydrolysis [2, 15] | PET hydrolysis [2, 16] | PET hydrolysis [2, 17] | PET hydrolysis [2, 18] | PET hydrolysis [2, 19] | PET hydrolysis ([2]; substrate: aFilm, 40 °C, pH 8.5) | PET hydrolysis ([2]; substrate: aFilm, 60 °C, pH 8.5) | PET hydrolysis ([2]; substrate: cryPow, 40 °C, pH 8.5) | PET hydrolysis ([2]; substrate: cryPow, 60 °C, pH 8.5) |
| --- | --- | --- | --- | --- | --- | --- | --- | --- | --- | --- | --- | --- | --- | --- | --- | --- | --- | --- | --- | --- | --- | --- |
| ADNPYQRGPDPTRTSVTAVNGPFANTSVSVPTGYGFNGGRIYYPTDTSQGTFGAIAISPGYTALFSAELAWMGPWLASHGFVVIGIETNSRNDFDTARGTQLLAALDYLTQQSPVRDRVDPTRLAVAGHSMGGGGALSAATRRSSLKAAVGIAPYSPSSNLANDRVPTMVFAGQADTVVTPSYATGLYNSLPATTESAYLEVAGADHGFMVGRSNPVLVRTMLPFVKMFVDNDARYSQFLCPLLDSSGVVTYRSTCPLLPSTPTTPTATPTNTPTPTASPTVPPTSASQIVGTQSGRCVDVPNASRTNGTRVTLYDCNRQINQTWTYTANKQLQVYGTMCLDAAGTGNGAAVQIYNCHGQTNQQWNVNSNGTISSVQSGRCLDVWSTSNGAQIQLYDCHGQPNQQFRLVSLA [ESM135] | 109 | 6 | 15 | 14 | 5 | < 3 | < 3 | < 3 | < 3 | 61.3 |  |  |  |  |  |  |  |  |  |  |  |  |
| ADNPYQRGPDPTTASVAATRGTFATAEQTVGGGNGFAAGKIYYPIDTSQGTFGAIAIVPGYTATWAAEGAWMGPWLASFGFVVIGIDTNSRNDYDTARGTQLLAALDYLTQRSPVSGRVDAKRLSVMGHSMGGGGAVYAAIHRPSLWAAVGLAPFSPSQNLTTDKVPALLLAGQNDGTVSPSSVQSLYNGIPAGVEKGYLELAGAGHGFPTSSNSVMMRRVIPWLKIFVDHDSRYSKFLCPSLADSTGISGYRSTCPLDVPGGGDPGPGDQAVSLVGAGSGKCIDVPNQSQANGTALVVWTCNGGTNQRWTPTSAGELRVYNGTKCMDAGSGQPGTAVTINACGGGNSQKWTVNATGTITNAQAGACLDVSGGGTADNTPVIVWNCTGAANQVWTRQM [ESM103] | 48.2 | < 3 | < 3 | < 3 | < 3 |  |  |  |  | 51.7 |  |  |  |  |  |  |  |  |  |  |  |  |
| ADNPYQRGPDPTVASVAATNGPFATAQLNVPSGNGFNGGTIYYPTDTSLGTWGAVAIVPGYTARFANEEAWMGPRLASFGFVVIGVETNSTTDWDTARGTQLLAALDYLTQKSSVRDRVDASRLAVIGHSMGGGGVVYAASQRPSLKAAIGLAPYAPSGNLSNVKVPMLIQGGQNDTVVTPSYLDGLYPTLPSSTPGAYVQYSGADHLFWTKANNIELRTQIPWLKIFLDNDTRYTQFMCPTLKDTASVAKYSAKCSLIPSAGSTTAPTTQPATSAPATTSPTTQPPSQPG [TEP083] | 356 | < 3 | 3 ± 4.2 | < 3 | < 3 | < 3 | < 3 | < 3 | < 3 | 64.3 | < 3 | < 3 | < 3 | < 3 | < 3 | < 3 | < 3 | < 3 |  |  |  |  |
| ADNPYQRGPDPTVASVAATRGTFATAQLTVPAGNGFGGGYIYYPTDTSRGTYGAVAIVPGYSALFANEEAWMGPWLASFGFVVIGVETITRNDGADARATQLLAALDYLTQRSQVRDRVDATRLAVMGHSAGGAGTILASERRPSLKAAVGLAPGTPGSLSLATNHVPMMIIGGQTDPTVTPSYLNNLYATMPAATPSDFVQIAGADHLFFTRANNTEMKVLIPWLKIFLDNDTRYTQFLCPSLADPQGISLYRSKCPYLPPGTTSPSPSASSTLSPSPSVSPTASPSPSVSLTPSPSNPATGCAATYRTVNSWPGGFQGEVTVSAGGAPVDGWTVGWTLGSGQSITQLWNGTLTTSGSTVTVRNPAYGGSIPAGGSVVFGFLGTGTPSVPALTCTSP [ESM031] | 66.9 | < 3 | < 3 | < 3 | < 3 | < 3 | < 3 | < 3 | < 3 | 47.8 |  |  |  |  |  |  |  |  |  |  |  |  |
| ADNPYQRGPEPTTSSVAATRGTFATAEVSVSKGNGFGGGKIYYPTDTSKGTFGAIAVVPGYTATWAAEGAWMGPWLASFGFVVIGIDTNSRTDYDTARGTQLLAALDYLTQKSSVRSRVDVKRLSVMGHSMGGGGAMYAALHRPSLWAAVGNAPFSPSQNLKSDRVPTLLLAGQKDTTVTPSSVVGLYNGIPAATEKGYLELTGAAHNFPTRSNSVMMRKVVPWLKIFVDHDTRYGQFLCPSLKDTTGITSYRSTCPLTTAGQ [ESM078] | 68.8 | < 3 | < 3 | < 3 | < 3 | < 3 | < 3 | < 3 | < 3 | 52 |  |  |  |  |  |  |  |  |  |  |  |  |
| ADNPYQRGPNPTAASIAATTGPFAIASVSVARGNGFGGGVIYYPTDTSQGTFGAIAISPGLNGTWPGIAWLGPRLASQGFVVFGIETNNLNDSPTSRGTQLLAALDYLTQRSSVRTRVDATRLAVAGHSMGGGGALDAALRRPSLQAAIGNAPYLPSGNLSTDRVPTLIYAMQNDTLVPPSRLTTMYNTIPATTERGYIQITGAGHNYIGQPSTNLARTMIPWFKIFIDNDTRFSQFLCPLSNMSGISQYRNSCPLI [ESM159] | 371 | < 3 | 15.5 ± 6.4 | 46.5 ± 3.5 | 74.5 ± 7.8 | < 3 | < 3 | 6.5 ± 2.1 | 13 ± 1.4 | 57.4 | < 3 | < 3 | < 3 | 2 ± 2.8 | < 3 | < 3 | < 3 | < 3 |  |  |  |  |
| ADNPYQRGPNPTLASVAANRGTFATAQTSVPAGNGFGGGVIYYPTDTSQTFGGVAIVPGYSALFANEEAWMGPWLASFGFVVIGIETNSRTDSADARGTQLLAALDYLTQRSSVRDRVDPNRLSVVGHSAGGAGVLSAILRRPTLKAGIGLAPGSPVGDYGLSNDRVPTMFISGQRDTTVTQSYLNGLYTTIPASTPSAWVEITGVDHLFATRANTTEMRVLIPWLKIWVDNDTRYTQFLCPLADSSNISMYRNKCPYVPPGGSPSPSASPSSSPSQSPSQSPSQSPSQSPSQSPSTSPSPPPPGACVAEYQPQNSWPGGYQALVTVKAGSSAINGWTVRWTLGSGQTISQAWNGTLSTSGSAVTVKNASYNGSLPAGGSTSFGFLATGTPSTPTLTCTSP [ESM013] | 431 | < 3 | < 3 | < 3 | < 3 | < 3 | < 3 | < 3 | < 3 | 59.8 | < 3 | < 3 | < 3 | < 3 | < 3 | < 3 | < 3 | < 3 |  |  |  |  |
| ADNPYQRGPNPTLASVAATRGTFATAQINVPGGNGFGSGVIYYPTDTSQGTFGGVAIVPGYSALFANEEAWMGPWLASFGFVVIGIETNSRTDSADARGTQLLAALDYLTQRSSVRDRVDPSRLSVVGHSAGGAGVLSAVIRRPSLKAAVGLAPGSPVGNYELSADKVPLMFISGQKDTTVTQSYLNGLYTTIPASTPSAWVEITGVDHLFATRANTTEMRVLIPWLKIFLDNDTRYTQFLCPLADSSGISMYRNKCPYVPPGGSSPSPSATPSPSVSPSASPSASPSASPSVSPSASPSVSPSASPSASPSSQPSGACTASYKTVNSWPGGYQGEVTVTAGSAAINGWTVRWTLGSGQSVSQVWNGTLTTSGSTVTVKNVSYNGSLPAAGSATFGFLANGTASTPAVTCTSP [ESM004] | 375 | < 3 | < 3 | < 3 | < 3 | < 3 | < 3 | < 3 | < 3 | 55.9 | < 3 | < 3 | < 3 | < 3 | < 3 | < 3 | < 3 | < 3 |  |  |  |  |
| ADNPYQRGPNPTQASIAANRGTFATAETSVGGGNGFGGAKIYYPTDTSQGTFGAIAVSPGYTATWAAEGAWMGHWLASFGFVVIGIDTINRNDREYARGTQLLAALDYLTQRSSVRTRVDPNRLAVMGHSMGGGGTISAALRRPTLKAAIGLAPYYPSQSTSGMQVPTMLLAGQNDGTSTPASIVTFYNDIPASTEKVYLELTGAGHGFPTSNNSVVTRKVIPWMKIFIDQDTRYTQFLCPLQDLTGIRTYRNSCPLLPNDPGTTFSLAGSASGKCADVPGRVQTNGTGLIIWTCNNAGNQQWTQTPAGELRIYGNTKCMDANASGQGARVTINTCNGGNSQKWTVNTNGTVTNAASGRCLDAGGTADNSPVVVNTCNAASGQTWTKRP [DP047] | 311 |  | < 3 | < 3 | < 3 |  | < 3 | < 3 | < 3 | 49.9 |  | < 3 | < 3 | < 3 |  | < 3 | < 3 | < 3 | < 3 | < 3 | < 3 | < 3 |
| ADNPYQRGPNPTRESVAANRGTFATAETSVGGGNGFGGAKIYYPADTSQGKFAALAVVPGYTATWAAEGAWMGHWLASFGFVIIGIDTNSRNDWDTARGDQLLAALDYLTQRSSVRDRVDANRLGVMGHSMGGGGAISAALKRPTLKAAIGNAPFSASQNLTTMRVPIALNAGQRDGTVTPSMVTGYYNQVPATTEKMYLEFSGAGHAFPTSNNSALTRKIIPWMKIFLDQDTRYQQFLCPVMDNTGISASRSSCPLIPGDPTPPTDTYSLAGAASGKCADVEGRSQTNGAKLLLWPCNGQVNQRWTQTAAGELRVYDNPKCMDAGGSGQGERVTSNACNGGNSQKWTVNANGTVTNTTSGRCLDATGTADDAPVVVNTCNGAASQNWSKRS [TEP131] | 331 | < 3 | < 3 | 4 | 6.5 ± 0.71 | < 3 | < 3 | < 3 | < 3 | 55.3 | < 3 | < 3 | < 3 | < 3 | < 3 | < 3 | < 3 | < 3 |  |  |  |  |

— the supplement of paper PMC12455559
